Patent US20040175731, “Methods and products for treating staphylococcal infections” (The Brigham and Women's Hospital, Inc., published 2004)

Key:
IcaR [1] = biological target: T1, IcaR (Staphylococcus aureus, UniProt Q9RQQ0 SEQ:1-186); assay: EMSA; data not shown; details: tags: N-terminal His6 (pCRT7-NT); chain copies: 2; label: 32P
T1 sequence: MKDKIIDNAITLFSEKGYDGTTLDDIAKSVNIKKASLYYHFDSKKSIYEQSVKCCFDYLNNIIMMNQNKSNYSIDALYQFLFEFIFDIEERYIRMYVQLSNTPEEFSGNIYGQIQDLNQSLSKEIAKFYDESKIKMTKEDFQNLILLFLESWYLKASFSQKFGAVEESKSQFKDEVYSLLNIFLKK

TcaR [2] = biological target: T2, TcaR (Staphylococcus aureus, UniProt Q9F4G3 Q9F4G3:1-151); assay: footprint; data not shown; multiple sites protected, specific and high affinity; details: chain copies: 2; label: 32P
T2 sequence (Q9F4G3 whole entry, one chain of several): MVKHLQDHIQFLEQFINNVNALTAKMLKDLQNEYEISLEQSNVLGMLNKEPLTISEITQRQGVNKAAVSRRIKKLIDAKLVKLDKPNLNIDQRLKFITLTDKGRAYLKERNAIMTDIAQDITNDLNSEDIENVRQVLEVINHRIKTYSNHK

IcaR [3] = biological target: T1, IcaR; assay: EMSA; on ice; competed by 100x specific competitor; details: tags: N-terminal His6 (pCRT7-NT); chain copies: 2; label: 32P
IcaR [4] = biological target: T1, IcaR; assay: EMSA; recombinant IcaR failed to bind either short probe; details: tags: N-terminal His6 (pCRT7-NT); chain copies: 2; label: 32P
IcaR [5] = biological target: T1, IcaR; assay: EMSA; no detectable difference from WT probe; details: tags: N-terminal His6 (pCRT7-NT); chain copies: 2; label: 32P
TcaR [6] = biological target: T2, TcaR; assay: footprint; data not shown; protection much the same as WT; details: chain copies: 2; label: 32P

B1: WTshort 53-bp (dsDNA)
DNA 1: CTATGTTACAGGAAAATTAAGTTGCAATTACAAATATTTCCGTTTAATTATAA
DNA 2: TTATAATTAAACGGAAATATTTGTAATTGCAACTTAATTTTCCTGTAACATAG
B1: no binding (IcaR [1]).

B2: 198-bp WT ica promoter probe (dsDNA)
DNA 1: ATTGCGTTATCAATAATCTTATCCTTCAATTTTTATAACCCCCTACTGAAAATTAATCACACTATGTTACAGGAAAATTAAGTTGCAATTACAAATATTTCCGTTTAATTATAACAACAATCTATTGCAAATTAAAATACTATCAATTACCATATGGCTTACAACCTAACTAACGAAAGGTAGGTAAAGAAATTGCAA
DNA 2: TTGCAATTTCTTTACCTACCTTTCGTTAGTTAGGTTGTAAGCCATATGGTAATTGATAGTATTTTAATTTGCAATAGATTGTTGTTATAATTAAACGGAAATATTTGTAATTGCAACTTAATTTTCCTGTAACATAGTGTGATTAATTTTCAGTAGGGGGTTATAAAAATTGAAGGATAAGATTATTGATAACGCAAT
B2: binds (TcaR [2]); binds (IcaR [3]).

B3: DEL/MUC 48-bp (dsDNA)
DNA 1: CTATGTTACAGGAAAATTAAGTTGCAATTACAAACCGTTTAATTATAA
DNA 2: TTATAATTAAACGGTTTGTAATTGCAACTTAATTTTCCTGTAACATAG
B3: no binding (IcaR [4]).

B4: 193-bp MUC ica promoter probe (dsDNA)
DNA 1: ATTGCGTTATCAATAATCTTATCCTTCAATTTTTATAACCCCCTACTGAAAATTAATCACACTATGTTACAGGAAAATTAAGTTGCAATTACAAACCGTTTAATTATAACAACAATCTATTGCAAATTAAAATACTATCAATTACCATATGGCTTACAACCTAACTAACGAAAGGTAGGTAAAGAAATTGCAA
DNA 2: TTGCAATTTCTTTACCTACCTTTCGTTAGTTAGGTTGTAAGCCATATGGTAATTGATAGTATTTTAATTTGCAATAGATTGTTGTTATAATTAAACGGTTTGTAATTGCAACTTAATTTTCCTGTAACATAGTGTGATTAATTTTCAGTAGGGGGTTATAAAAATTGAAGGATAAGATTATTGATAACGCAAT
B4: binds (IcaR [5]); binds (TcaR [6]).
